# Results reported in PMC11199487, “Hub stability in the calcium calmodulin-dependent protein kinase II” (Communications Biology, 2024).
# Numbering of substitutions follows the chain as printed. In names and notes the source's numbering stands. Several values for one entry are separate records, joined by “and”; a condition that tells them apart may be missing. Equal values may be shown once.
# B1: CaMKIIα hub (6His-V15-mCaMKIIα hub construct: Venus tag, 15-amino-acid linker, α association domain) (domain or fragment)
# chain: VRKQEIIKVTEQLIEAISNGDFESYTKMCDPGMTAFEPEALGNLVEGLDFHRFYFENLWSRNSKPVHTTILNPHIHLMGDESACIAYIRITQYLDAGGIPRTAQSEETRVWHRRDGKWQIVHFHRSGAPSVLPH
# notes: CaMKII alpha association domain (AD); made from the holoenzyme construct by removal of the kinase domain; The plasmid is named mCaMKIIα, but the introduction speaks of rat α hubs; also called isolated α hub; CaMKIIα AD hub; source: E. coli BL21/Rosetta, co-transformed with a protein phosphatase plasmid, purified (nickel Hi-Trap); not shown: Venus, N-terminal, kept
# B2: CaMKIIβ hub (6His-V15-rCaMKIIβ hub construct) (domain or fragment, rat)
# chain: ARKQEIIKTTEQLIEAVNNGDFEAYAKICDPGLTSFEPEALGNLVEGMDFHRFYFENLLAKNSKPIHTTILNPHVHVIGEDAACIAYIRLTQYIDGQGRPRTSQSEETRVWHRPDGKWQNVHFHCSGAPVAPLQ
# notes: rat CaMKII beta association domain (AD); made from the holoenzyme construct by removal of the kinase domain; also called isolated β hub; native β; source: E. coli BL21/Rosetta, co-transformed with a protein phosphatase plasmid, purified (nickel Hi-Trap); not shown: Venus, N-terminal, kept
# B3: CaMKIIβ hub F458A (domain or fragment, rat)
# chain: B2 chain with F50A
# notes: rat CaMKII beta association domain (AD) with F458A; as m2 with the substitution; The methods describe F458A mutagenesis only of 6His-V15-rCaMKIIβ (the holoenzyme construct); The results say that F458A disassembles isolated β hubs; also called βF458A (isolated hub); source: E. coli BL21/Rosetta, co-transformed with a protein phosphatase plasmid, purified (nickel Hi-Trap); not shown: Venus, …
# B4: CaMKIIβ holoenzyme T287A/T306A/T307A (6His-V15-rCaMKIIβ triple mutant) (enzyme, rat, UniProt P08413 1-542, looked up)
# chain: MATTVTCTRFTDEYQLYEDIGKGAFSVVRRCVKLCTGHEYAAKIINTKKLSARDHQKLEREARICRLLKHSNIVRLHDSISEEGFHYLVFDLVTGGELFEDIVAREYYSEADASHCIQQILEAVLHCHQMGVVHRDLKPENLLLASKCKGAAVKLADFGLAIEVQGDQQAWFGFAGTPGYLSPEVLRKEAYGKPVDIWACGVILYILLVGYPPFWDEDQHKLYQQIKAGAYDFPSPEWDTVTPEAKNLINQMLTINPAKRITAHEALKHPWVCQRSTVASMMHRQEAVECLKKFNARRKLKGAILAAMLATRNFSVGRQTTAPATMSTAASGTTMGLVEQAKSLLNKKADGVKPQTNSTKNSSAITSPKGSLPPAALEPQTTVIHNPVDGIKESSDSTNTTIEDEDAKARKQEIIKTTEQLIEAVNNGDFEAYAKICDPGLTSFEPEALGNLVEGMDFHRFYFENLLAKNSKPIHTTILNPHVHVIGEDAACIAYIRLTQYIDGQGRPRTSQSEETRVWHRPDGKWQNVHFHCSGAPVAPLQ
# notes: rat CaMKII beta, open reading frame codon optimized for bacterial expression, with T287A, T306A and T307A; Only the association-domain hub is resolved in the cryo-EM maps; also called engineered β holoenzyme; source: E. coli BL21/Rosetta, co-transformed with a protein phosphatase plasmid, purified (nickel Hi-Trap); not shown: Venus, N-terminal, kept
# What was measured:
# [1] = target: the molecule itself; test: cryo-EM structure; isolated Venus-tagged hubs, 20 mg/mL, flash-frozen stocks thawed on ice, grids plunge-frozen at 4 °C and 100% humidity; self-assembly of the association domains
# [2] = target: the molecule itself; test: SEC; EnRich SEC 650 column, 50 mM Tris, 150 mM KCl, 0.2 mM TCEP, 2% glycerol, pH 8.0, room temperature, thawed stocks applied without dilution, 250 μL, 1 mL/min
# [3] = target: the molecule itself; test: cryo-EM structure; Venus-tagged β holoenzyme sample, 20 mg/mL, fresh rather than flash-frozen preparation, grids plunge-frozen at 4 °C and 100% humidity; only the hub resolved
Protein,stoichiometry N [1],also measured
B1,12 and 14,
B2,12 and 14,
B3,,stoichiometry N [2]: 2
B4,,stoichiometry N [3]: 14 and 12
